# Experimental data from the supplement of paper PMC10567573.
# B1: TRIM39 (parent)
# chain: YPCVLATEGFTSGRHYWEVEVGDK
# Variants of: B1
# Assay: protein stability index of a GFP-peptide fusion (GPS, HEK-293T) (PSI 1-6); higher = more stable
# Conditions: c terminus: a fixed tail appended
# 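Also: lentivirally expressed fusions sorted by FACS into six bins by GFP to DsRed ratio, PSI derived from sequencing read proportions per bin multiplied by bin number.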
row,Variant,protein stability index
1,YPCVLATEGFTSGRHYWKVEVGDK [E18K],1.73
2,YPCVLATEGFTSGRHYWMVEVGDK [E18M],1.51
3,YPCVLATEGFTSGRHYWNVEVGDK [E18N],2.38
4,YPCVLATEGFTSGRHYWPVEVGDK [E18P],1.92
5,YPCVLATEGFTSGRHYWQVEVGDK [E18Q],1.05
6,YPCVLATEGFTSGRHYWSVEVGDK [E18S],2.72
7,YPCVLATEGFTSGRHYWWVEVGDK [E18W],2.2
8,YPCVLATEGFTSGRHYWYVEVGDK [E18Y],2.71
9,YPCVLATEGFTSGRHYWEAEVGDK [V19A],1.96
10,YPCVLATEGFTSGRHYWECEVGDK [V19C],2.18
11,YPCVLATEGFTSGRHYWEDEVGDK [V19D],3.18
12,YPCVLATEGFTSGRHYWEEEVGDK [V19E],2.59
13,YPCVLATEGFTSGRHYWEFEVGDK [V19F],2.21
14,YPCVLATEGFTSGRHYWEGEVGDK [V19G],2.6
15,YPCVLATEGFTSGRHYWEHEVGDK [V19H],2.85
16,YPCVLATEGFTSGRHYWEIEVGDK [V19I],2.19
17,YPCVLATEGFTSGRHYWEKEVGDK [V19K],2.98
18,YPCVLATEGFTSGRHYWELEVGDK [V19L],2.35
19,YPCVLATEGFTSGRHYWEMEVGDK [V19M],2.63
20,YPCVLATEGFTSGRHYWENEVGDK [V19N],2.54
21,YPCVLATEGFTSGRHYWEPEVGDK [V19P],2.13
22,YPCVLATEGFTSGRHYWEQEVGDK [V19Q],2.86
23,YPCVLATEGFTSGRHYWEREVGDK [V19R],2.4
24,YPCVLATEGFTSGRHYWESEVGDK [V19S],1.93

row,Variant,protein stability index
1,YPCVLATEGFTSGRHYWETEVGDK [V19T],1.41
2,YPCVLATEGFTSGRHYWEWEVGDK [V19W],2.21
3,YPCVLATEGFTSGRHYWEYEVGDK [V19Y],2.64
4,YPCVLATEGFTSGRHYWEVAVGDK [E20A],2.14
5,YPCVLATEGFTSGRHYWEVCVGDK [E20C],2.73
6,YPCVLATEGFTSGRHYWEVDVGDK [E20D],1.98
7,YPCVLATEGFTSGRHYWEVFVGDK [E20F],1.93
8,YPCVLATEGFTSGRHYWEVGVGDK [E20G],3.06
9,YPCVLATEGFTSGRHYWEVHVGDK [E20H],1.58
10,YPCVLATEGFTSGRHYWEVIVGDK [E20I],1.96
11,YPCVLATEGFTSGRHYWEVKVGDK [E20K],2.4
12,YPCVLATEGFTSGRHYWEVLVGDK [E20L],2.32
13,YPCVLATEGFTSGRHYWEVMVGDK [E20M],1.59
14,YPCVLATEGFTSGRHYWEVNVGDK [E20N],2.06
15,YPCVLATEGFTSGRHYWEVPVGDK [E20P],1.57
16,YPCVLATEGFTSGRHYWEVQVGDK [E20Q],1.51
17,YPCVLATEGFTSGRHYWEVRVGDK [E20R],3.35
18,YPCVLATEGFTSGRHYWEVTVGDK [E20T],2
19,YPCVLATEGFTSGRHYWEVVVGDK [E20V],2.31
20,YPCVLATEGFTSGRHYWEVWVGDK [E20W],2.16
21,YPCVLATEGFTSGRHYWEVYVGDK [E20Y],1.96
22,YPCVLATEGFTSGRHYWEVEAGDK [V21A],2.51
23,YPCVLATEGFTSGRHYWEVEDGDK [V21D],2.2
